{"source": "paper PMC8860596", "about": "(Nucleic Acids Research, 2021)", "binders": {"B1": {"name": "loxP-54 (dsDNA)", "DNA 1": "CGAGTGGCCGATAACTTCGTATAATGTATGCTATACGAAGTTATGCGGCGTGAC", "DNA 2": "GTCACGCCGCATAACTTCGTATAGCATACATTATACGAAGTTATCGGCCACTCG"}, "B2": {"name": "Cre recombinase K201A (cleavage-deficient variant) (enzyme, P1 phage)", "chain": "MSNLLTVHQNLPALPVDATSDEVRKNLMDMFRDRQAFSEHTWKMLLSVCRSWAAWCKLNNRKWFPAEPEDVRDYLLYLQARGLAVKTIQQHLGQLNMLHRRSGLPRPSDSNAVSLVMRRIRKENVDAGERAKQALAFERTDFDQVRSLMENSDRCQDIRNLAFLGIAYNTLLRIAEIARIRVKDISRTDGGRMLIHIGRTATLVSTAGVEKALSLGVTKLVERWISVSGVADDPNNYLFCRVRKNGVAAPSATSQLSTRALEGIFEATHRLIYGAKDDSGQRYLAWSGHSARVGAARDMARAGVSIPEIMQAGGWTNVNIVMNYIRNLDSETGAMVRLLEDGD"}, "B3": {"name": "loxP-44 (dsDNA)", "DNA 1": "CGGCGATAACTTCGTATAATGTATGCTATACGAAGTTATGCGGC", "DNA 2": "GCCGCATAACTTCGTATAGCATACATTATACGAAGTTATCGCCG"}, "B4": {"name": "loxP-38 (dsDNA)", "DNA 1": "CGATAACTTCGTATAATGTATGCTATACGAAGTTATGC", "DNA 2": "GCATAACTTCGTATAGCATACATTATACGAAGTTATCG"}}, "key": {"CreYin [1]": {"biological_target": "T1, CreYin (P1 phage, UniProt P06956 1-343, D33A;A36V;R192A)", "assay": "cryo-EM"}, "Cre K201A [2]": {"biological_target": "T2, Cre K201A (P1 phage, UniProt P06956 1-343, K201A)", "assay": "EMSA"}, "CreYang [3]": {"biological_target": "T3, CreYang (P1 phage, UniProt P06956 1-343, R72E;L115D;R119D)", "assay": "EMSA"}, "CreYin [4]": {"biological_target": "T1, CreYin", "assay": "EMSA"}, "CreYin;CreYang [5]": {"biological_target": "T4, CreYin;CreYang (P1 phage;P1 phage, UniProt P06956;P06956 1-343;1-343, D33A;A36V;R192A|R72E;L115D;R119D)", "assay": "EMSA"}, "Cre deltaN (CreΔαN)": {"biological_target": "Cre deltaN (CreΔαN) (P1 phage, UniProt P06956 1-330)", "assay": "EMSA"}, "native gel or EMSA": {"biological_target": "the molecule itself", "assay": "native gel or EMSA"}, "Cre K201A [6]": {"biological_target": "T2, Cre K201A", "assay": "cryo-EM"}, "CreYin;CreYang [7]": {"biological_target": "T4, CreYin;CreYang", "assay": "cryo-EM"}, "CreYin;CreYang [8]": {"biological_target": "T4, CreYin;CreYang", "assay": "native MS"}, "CreYang [9]": {"biological_target": "T3, CreYang", "assay": "native MS"}, "CreYin [10]": {"biological_target": "T1, CreYin", "assay": "native MS"}}, "data": [{"binder": "GCATAACTTCGTATAGCATATGCGAAGCATATGCTATACGAAGTTATGC (structured_DNA)", "note": "[loxA hairpin]", "values": [{"measurement": "binding result", "setting": "CreYin [1]", "result": "binds"}]}, {"binder": "B1", "values": [{"measurement": "binding result", "setting": "Cre K201A [2]", "result": "binds"}, {"measurement": "binding result", "setting": "CreYang [3]", "result": "binds"}, {"measurement": "binding result", "setting": "CreYin [4]", "result": "binds"}, {"measurement": "binding result", "setting": "CreYin;CreYang [5]", "result": "binds"}, {"measurement": "binding result", "setting": "Cre deltaN (CreΔαN)", "result": "binds"}]}, {"binder": "B2", "values": [{"measurement": "stoichiometry N", "setting": "native gel or EMSA", "result": 4}]}, {"binder": "B3", "values": [{"measurement": "binding result", "setting": "Cre K201A [6]", "result": "binds"}, {"measurement": "binding result", "setting": "CreYin;CreYang [7]", "result": "binds"}]}, {"binder": "B4", "values": [{"measurement": "binding result", "setting": "CreYin;CreYang [8]", "result": "binds"}, {"measurement": "binding result", "setting": "CreYang [9]", "result": "binds"}, {"measurement": "binding result", "setting": "CreYin [10]", "result": "binds"}]}]}
